Ends that are not written are not given here.
How the values were obtained:
Experiment in all cases: biotinylated peptide overlaid on formalin-fixed amyloid-containing tissue sections; list of amyloids that p31 'specifically binds significantly'
[1] = molecular target: T1, AA amyloid (canine) (canine, UniProt P19708 19-111)
T1 sequence (looked up): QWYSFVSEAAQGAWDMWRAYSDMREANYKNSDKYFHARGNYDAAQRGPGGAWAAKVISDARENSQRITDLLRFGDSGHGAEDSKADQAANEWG
Method: (§1) The peptides were overlaid onto formalin-fixed 6 μm-thick amyloid-containing tissue sections, incubated overnight and then the distribution visualized using standard immunohistochemical techniques.

[2] = molecular target: ATTR amyloid (transthyretin amyloidosis) (human, UniProt P02766 21-147)
Method: as §1

[3] = molecular target: T2, ALECT2 amyloid (Lect2 amyloidosis) (human, UniProt O14960 19-151, limits assumed)
T2 construct: also called ALEC2
T2 sequence (looked up): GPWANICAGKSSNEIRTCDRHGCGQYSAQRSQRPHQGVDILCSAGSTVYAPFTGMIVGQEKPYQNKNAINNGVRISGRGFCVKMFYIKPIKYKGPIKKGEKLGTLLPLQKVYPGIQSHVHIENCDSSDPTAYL
Method: as §1

[4] = molecular target: Aβ amyloid (Alzheimer's disease) (human, UniProt P05067 672-713)
Method: as §1

[5] = molecular target: T3, AA amyloid (human) (human, UniProt P0DJI8 19-94, limits assumed)
T3 construct: also called serum amyloid protein A amyloidosis
T3 sequence (looked up): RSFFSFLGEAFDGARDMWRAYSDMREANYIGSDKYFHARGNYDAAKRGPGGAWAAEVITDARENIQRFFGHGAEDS
Method: as §1

binding result [1]: binds
binding result [2]: binds
binding result [3]: binds
binding result [4]: binds
binding result [5]: binds
B1: peptide p31 (peptide)
peptide: CGGYSKAQKAQAKQAKQAQKAQKAQAKQAKQ
modifications: also: label differs by assay: biotinyl-maleimide on Cys1 (tissue overlays), 125I on Tyr or 99mTc (imaging)
notes: Synthetic peptide with an N-terminal CGGY leader
